Measurements taken from the supplement of paper PMC9170038.

Test system: K4 kissing-loop RNA reporter
Experiment: apparent KD of K4 kissing-loop reporter; higher = weaker reporter binding
Conditions: Eterna round: R107; input ligand: FMN 200 uM
Experimental: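 RNA-MaP round R107: designed RNA switches with theophylline, tryptophan, arginine or FMN aptamers are transcribed on-chip within common flanks. They are titrated with a labelled K4 kissing-loop RNA reporter in RNA-MaP buffer (100 mM Tris pH 7.5, 80 mM KCl, 4 mM MgCl2), without ligand or with the indicated ligand. Median apparent KD per design.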
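Note: bound reporter read as fluorescence of individual clusters on recovered sequencing chips by microscopy, with normalized cluster intensities fitted with a binding model.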

| Sequence | apparent KD of K4 kissing-loop reporter [nM] |
| --- | --- |
| UGAUAGGACAGAAGGAGCGGGAGUGAUGUUCCCAAAGGAAGGUCUAGCAAAGCUGGACCCUCCCAGGUAGGUCGCUGUCCUAUCU [ArgBX 4 #SwitchBubble #StaticStem] | 129 |
| AGACUACCACACUGUCAAUAGACAGUGAACUAGGAUAUGCUGAUAAGCAGAAGGAGUGAUGUUCCUAAUAAGGUAGUCAUAUAAU [FmnAX 15 #SwitchBubble #StaticStem #K4Early] | 590 |
| AGGUCUGCACGAAGGAGCGCCCUGACAGGUUGCUGCCGUGGGCAGUGAUGUUGCUCAGUCCGGCAGGUAGGUCGCGUGCAGACCU | 136 |
| UGAUCUCGGCAGUGAUGUUGCAUAUGAGAAGGAGCGCACGAAAGUGCAGGUAGGUCGCUCAGCCACGACGAAAGUCGCGAGAUCU [#SwitchBubble 3 #K4Early] | 137 |
| UUUCGUUUCGUCUGACAUAAUUGGCUAGAAGGAGCGGUAAAAUUACCAGGUAGGUCGCUAGCCCAGUGAUGUUGGGACUAGCGUA [Edries] | 124 |
| UGACUGGACUGAAGGAGCGCGAACUCCUAGUGAUGUUAGGAAAUACGAGACAAAGUCUCGACGCAGGUAGGUCGCAGUCUAGUCU [ArgBS 15 #SwitchBubble #StaticStem] | 110 |
| UAAUCCUAAUGAUAAUAAUCAAGUGGUGGACGAGGACCGGUACGGCCGCCACUCGAAAAUGCAGUGAUGUUGUAAUACGGAUAAU [Exclusion - Tryptophan A (Freestyle 3)] | 288 |
| GGUAGCAUGGCGGCCGCCACUUUUACUGGAUCGGAAACGAUCCAGUAUUGUGUAGUGAUGUUACAAAGGACCGGGCCAUGCUACC | 201 |
| UUUUGCUAGCGAAACGCUAGCUUAACAGAUACCAGUCGCGAAAGCGACCCUUGGCAGCUGCUGAGUGAUGUUCAGGUGAGAGUUA | 387 |
| UGACUGGACUGAAGGAGCGCUAAACUCCUAGUGAUGUUAGGGAAACAAGACAAAGUCUUGAGGCAGGUAGGUCGCAGUCUAGUCU [FiskerMod 3 - Jieux - Same State - Arginine B] | 287 |
| AAAGUGUCAGCACGAGUGAUGUUCGUGGAUACCAGCCUCGAUAAAGGCCCUUGGCAGCCGAAAAGUCAAGGGCUGGCACAUAAAA [KL-XTheo-A11] | 216 |
| CGCGCGUGAGGACUUGCCCUUCAUGGAGAUACCAGCCAGUAUGCGGGCCCUUGGCAGCUCGAGUGAUGUUCGAGUUUAAGGCAAA [Riesla] | 130 |
| GCUAUGGUAGGAAGGAGCGCUGCCUUGUUUUUACGAGUGAUGUUCGGAAGCAGGGUGUUAAAGCAGGUAGGUCGCCUACUAUAGC [Arginine B K4 23] | 191 |
| AAAUAAAUCAGAGGAUAUUCUUCCCACGUCGAAGUACCGUGCUUGAUGGAGUGAUGUUCGAUCAGAGAAGAAGGCUGAUAAAUAA [Same State FMN B GF 19] | 732 |
| UAUUAAGUGACGGCCGCCACUAUGGUGAUUUAUUUGUUUGAGUGAUGUUUUGAUGUUUGAUUUUGUAGGACCGGGUUAUGUGUUA [ttttcmullin] | 969 |
| AAACGUUGUUGCGAUACCAGCUGAUCGGAAACGAUCAUGCUGGAGUGAUGUUCCAGGAAAAGCCCUUGGCAGCGCAACGACGAAA [MAT - Same State Theophlline B - Mod of Eli - D30] | 276 |
| CUUGGAAGGACGGCCGCCACUCGACAGUGAUGUUGUCCGAGUGGGUAGCGCAGUGAUGUUGUGUCGAGGACCGGGUCCUAGGAAU [Exclusion Tryptophan B GF 27] | 185 |

Same assay, conditions: Eterna round: R107; input ligand: arginine 13.2 mM

| Sequence | apparent KD of K4 kissing-loop reporter [nM] |
| --- | --- |
| GAUUAAUAAGAGGAUACCAGUACUAAUAAAGUACAUUAAUAGUAGAGUGAUGUUCUAUAGUACCCUUGGCAGCUUAGAGUAAGUU [#09 K4 Theophylline B Exclusion] | 200 |
| CGUUUAUAGCAGGAUACCAGUACCCAUUAUGUACGUUAAUAGUAGAGUGAUGUUCUAAAGUACCCUUGGCAGCUUCCCGUGACCC [ExTheophylB.Y] | 183 |
| GCGCGUCAUGUCAGCGGUGACACUGUCGAUACCAGUGCCGUAAGGCGCCCUUGGCAGCGACGUGCUGGAGUGAUGUUCCAGCGUU [#2 Exclusion - Theophylline A Attempt #31 (HarryS)] | 132 |
| AAUUUACAUUAAUUAUUUAAAGGUUCAGAAGGAGCGUGAAUUAACACAGGUAGGUCGCUGAGCGAGUGAUGUUCGCUAUAUACUA [JR_ExcArginiA_Sub003] | 68.9 |
| AGAUUCGACACGGCCGCCACUCGUGGAUCUUGGUUGAGAGAUGAAAUAGAGUGAUGUUCUAAUACGAGGACCGGGUGUUGAGUCU [KL-SSTryp-B23] | 165 |
| GUGUGUGAAAACACGCACUUAUAUCCUAGGCAGGAUAUGCGGAAACGCAGAAGGGCCACCGGCGAGAAAAUCCAGUGAUGUUGGA [Ex FMN A 6] | 245 |
| ACGUGCACGAGUGAUGUUUGAAAAUCUGAAGGAGCGGGCGAAAGCCCAGGUAGGUCGCAGAAUAGCACGAGCCACGAAAGUGGCA | 272 |
| UAGGAGUGAUGUUCCAUAUCUUGAGCCGAAGGAGCGCCUUUCUAGGCAGGUAGGUCGCGGCAGAAGGUACCAGUGAUGUUGGAAA [Same State Arginine A GF7] | 171 |
| UUAUAAUUCAGUGAUGUUGAAAAUAUAACAGAGGAUAUGCGUUUAAGCAGAAGGCUGAAAUACUAUACUUUAAUCUAUUAAAUUU [JR_SSFMNA_Sub019] | 377 |
| CACAGAUCCUAAGGAUAUGGAGUGAUGUUCGCAAGUUCUUGGUGUGCAUUCAUCUGUCCUAUCAACCCAGAAGGUAGGAAGUCAC [theeternabot_exclusion_KL_FMN_B_1] | 516 |
